This assay addresses Type I-F Csy surveillance complex of Pseudomonas aeruginosa PA14 (Csy1-4 with crRNA) (Pseudomonas aeruginosa PA14) (UniProt Q02ML9). The assay can be described thus: SPR.

A word on the Kd: it is the concentration at which binding is half-saturated. The low end stands for higher affinity, the high end for lower affinity.

Consider “AcrIF4 (gene 37 from phage JBD26) (natural protein)”, for which the dissociation constant Kd is 400 nM.

The values are drawn from publication PMC6086726.
